Test [1] has as its target bone morphogenetic protein 2 (BMP2) (human) (UniProt P12643). Put plainly: SPR; ProteOn XPR36; BMP2 (570 RU) or GDF5 (470 RU) amine-coupled to a GLC sensor chip; ActR2b ectodomain perfused at 6 µM to 187.5 nM, 100 µl/min; 0.005% (v/v) Tween 20 buffer; Kd from the dose-dependency of equilibrium binding, one-site model; apparent. (In SPR one partner is held on a chip, and binding of the other changes the refractive index at the surface.)

In test [2] the target is growth differentiation factor 5 (GDF5), wild type (human) (UniProt P43026).
Test [3] deals with bone morphogenetic protein 2 (BMP2) (human) (UniProt P12643).
For test [4], the target named is growth differentiation factor 5 (GDF5), wild type (human) (UniProt P43026). The test can be described thus: SPR; ProteOn XPR36; BMP2 (570 RU), GDF5 (470 RU), TGF-β2 (300 RU) or activin A (350 RU) amine-coupled to a GLC sensor chip; analyte perfused (RGMB 50 to 1.56 nM at 150 or 100 µl/min; BMPR1A 1000 to 31.25 nM at 100 µl/min); 20 mM HEPES pH 7.4, 500 mM NaCl, 3.4 mM EDTA, 0.005% (v/v) Tween 20; 25 °C; Langmuir 1:1 kinetic fit (parameters local for RGMB), Kd = koff/kon; apparent.

Test [5] concerns the target bone morphogenetic protein 2 (BMP2) (human) (UniProt P12643). The test is described as above.
Test [6] concerns the target GDF5 variant Arg438Leu (human) (UniProt P43026). Put plainly: SPR; GDF5 wild type (500 RU), Arg438Ala (702 RU) or Arg438Leu (977 RU) amine-coupled to a GLC sensor chip; RGMECD proteins from FreeStyle 293 cells as analytes, six concentrations (log2 series from 40, 30, 20 or 10 nM), 100 µl/min; 20 mM HEPES pH 7.4, 500 mM NaCl, 3.4 mM EDTA, 0.005% (v/v) Tween 20; kon and koff fitted globally, Kd = koff/kon; two independent experiments; apparent.

In test [7] the target is growth differentiation factor 5 (GDF5), wild type (human) (UniProt P43026). The test is described as above.
The target of test [8] is GDF5 variant Arg438Ala (human) (UniProt P43026). The description is as above.
For test [9], the target named is GDF5 variant Tyr487Lys/Gln489Asp (UniProt P43026). The test can be described thus: SEC-MALS; RGMBND–GDF5(Tyr487Lys/Gln489Asp)–ActR2bECD complex, 1 mg/mL, Superdex 200 HR 10/30, 0.5 M NaCl, 20 mM Hepes pH 7.4, 21 °C. (In general: In gel filtration, larger molecules generally elute earlier.)
GDF5 variant Tyr487Lys/Gln489Asp, sequence (P43026 28-501 Y487K/Q489D): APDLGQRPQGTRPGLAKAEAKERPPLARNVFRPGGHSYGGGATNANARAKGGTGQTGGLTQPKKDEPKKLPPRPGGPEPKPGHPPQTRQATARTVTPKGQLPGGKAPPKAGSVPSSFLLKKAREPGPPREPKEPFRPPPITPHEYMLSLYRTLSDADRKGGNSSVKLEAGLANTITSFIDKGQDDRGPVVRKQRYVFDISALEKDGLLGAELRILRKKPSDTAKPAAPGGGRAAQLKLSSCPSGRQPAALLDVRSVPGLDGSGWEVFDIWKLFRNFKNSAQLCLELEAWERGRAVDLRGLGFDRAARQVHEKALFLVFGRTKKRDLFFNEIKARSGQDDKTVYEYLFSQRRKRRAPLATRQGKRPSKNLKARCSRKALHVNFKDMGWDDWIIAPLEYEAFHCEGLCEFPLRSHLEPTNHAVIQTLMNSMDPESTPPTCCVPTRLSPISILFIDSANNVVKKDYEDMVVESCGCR

bone morphogenetic protein 2 (BMP2) (human), sequence (P12643 24-396): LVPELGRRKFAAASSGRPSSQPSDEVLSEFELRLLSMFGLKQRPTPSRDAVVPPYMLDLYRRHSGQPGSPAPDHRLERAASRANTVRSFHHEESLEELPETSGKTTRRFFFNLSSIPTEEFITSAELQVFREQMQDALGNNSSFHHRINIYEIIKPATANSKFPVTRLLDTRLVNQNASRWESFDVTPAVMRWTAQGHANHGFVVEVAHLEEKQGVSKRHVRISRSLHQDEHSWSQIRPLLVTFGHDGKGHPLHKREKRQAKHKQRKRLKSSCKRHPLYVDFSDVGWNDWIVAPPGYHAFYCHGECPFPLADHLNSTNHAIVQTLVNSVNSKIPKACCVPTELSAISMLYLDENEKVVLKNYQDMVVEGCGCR
GDF5 variant Arg438Leu (human), sequence (P43026 28-501 R438L): as the sequence (P43026 28-501 Y487K/Q489D) above, with R411L, K460Y, D462Q counted along it
growth differentiation factor 5 (GDF5), wild type (human), sequence (P43026 28-501): as the sequence (P43026 28-501 Y487K/Q489D) above, with K460Y, D462Q counted along it
GDF5 variant Arg438Ala (human), sequence (P43026 28-501 R438A): as the sequence (P43026 28-501 Y487K/Q489D) above, with R411A, K460Y, D462Q counted along it

B1: murine activin type-2 receptor ActR2b, soluble ectodomain (residues Gly20 to Glu127) (receptor)
chain: GRGEAETRECIYYNANWELERTNQSGLERCEGEQDKRLHCYASWRNSSGTIELVKKGCWLDDFNCYDRQECVATEENPQVYFCCCEGNFCNERFTHLPEPGGPEVTYE
Turning to B1, the Kd in test [1] was found to be 2700 nM.

B2: soluble mature RGMB (Gln49-Gly412) produced in insect cells (domain or fragment)
chain: QQPAQCRIQKCTTDFVSLTSHLNSAVDGFDSEFCKALRAYAGCTQRTSKACRGNLVYHSAVLGISDLMSQRNCSKDGPTSSTNPEVTHDPCNYHSHAGAREHRRGDQNPPSYLFCGLFGDPHLRTFKDNFQTCKVEGAWPLIDNNYLSVQVTNVPVVPGSSATATNKITIIFKAHHECTDQKVYQAVTDDLPAAFVDGTTSGGDSDAKSLRIVERESGHYVEMHARYIGTTVFVRQVGRYLTLAIRMPEDLAMSYEESQDLQLCVNGCPLSERIDDGQGQVSAILGHSLPRTSLVQAWPGYTLETANTQCHEKMPVKDIYFQSCVFDLLTTGDANFTAAAHSALEDVEALHPRKERWHIFPSSG
By koff is commonly meant the first-order rate constant of dissociation. The kon is the second-order rate constant of association. In test [2], B2 showed a Fig. S3D: IC50 of soluble RGMB for inhibition of GDF5 (20 nM)-induced alkaline phosphatase expression in ATDC5 cells of 166 nM; a Fig. S3D: inhibitory constant Ki of soluble RGMB (from EC50 and IC50) for GDF5-induced alkaline phosphatase expression in ATDC5 cells of 85 nM; a Fig. S3H: IC50 of soluble RGMB for inhibition of GDF5 (10 nM)-induced SMAD signaling (BRE-Luc reporter) in C3H10T1/2 cells of 47 nM. In test [3], this molecule yielded a Fig. S3C: IC50 of soluble RGMB for inhibition of BMP2 (10 nM)-induced alkaline phosphatase expression in ATDC5 cells greater than 1500 nM; a Fig. S3C: inhibitory constant Ki of soluble RGMB (Cheng-Prusoff, from EC50 and IC50) for BMP2-induced alkaline phosphatase expression in ATDC5 cells greater than 500 nM; a Fig. S3G: IC50 of soluble RGMB for inhibition of BMP2 (10 nM)-induced SMAD signaling (BRE-Luc reporter) in C3H10T1/2 cells of 41 nM. In test [4], the koff was determined as 0.0025 s⁻¹ and the association rate constant (kon) was 1.8e+06 M⁻¹ s⁻¹. Moreover, in test [5], the off-rate (koff) is 0.011 s⁻¹ and the kon is 5.3e+06 M⁻¹ s⁻¹.

B3: full-length extracellular domain of RGMB (Gln49-Gly412) from FreeStyle 293 cells (domain or fragment)
chain: B2 chain
Turning to B3, in test [6], the Kd came out at 1.1 nM, the off-rate (koff) came to 0.0011 s⁻¹ and the association rate constant (kon) was 1e+06 M⁻¹ s⁻¹. Besides, in [7], the Kd worked out at 3.7 nM, the koff came to 0.0016 s⁻¹ and the association rate constant (kon) stood at 420000 M⁻¹ s⁻¹. For the same molecule, in [8], the Kd turned out to be 1.5 nM, the koff amounted to 0.0015 s⁻¹ and the kon came out at 1e+06 M⁻¹ s⁻¹.

B4: full-length extracellular domain of RGMA (Cys48-Arg423) from FreeStyle 293 cells (domain or fragment)
chain: CKILKCNSEFWSATSGSHAPASDDTPEFCAALRSYALCTRRTARTCRGDLAYHSAVHGIEDLMSQHNCSKDGPTSQPRLRTLPPAGDSQERSDSPEICHYEKSFHKHSATPNYTHCGLFGDPHLRTFTDRFQTCKVQGAWPLIDNNYLNVQVTNTPVLPGSAATATSKLTIIFKNFQECVDQKVYQAEMDELPAAFVDGSKNGGDKHGANSLKITEKVSGQHVEIQAKYIGTTIVVRQVGRYLTFAVRMPEEVVNAVEDWDSQGLYLCLRGCPLNQQIDFQAFHTNAEGTGARRLAAASPAPTAPETFPYETAVAKCKEKLPVEDLYYQACVFDLLTTGDVNFTLAAYYALEDVKMLHSNKDKLHLYERTRDLPGR
Turning to B4, the values for the Kd in [6], in [7] and in test [8] were 1.4 nM, 1.3 nM and 1.7 nM, respectively. Moreover, the koff in test [6] came to 0.00042 s⁻¹; in [7], 0.00052 s⁻¹; in test [8] it was 0.00045 s⁻¹. The kon in [6] stood at 300000 M⁻¹ s⁻¹; in [7], 420000 M⁻¹ s⁻¹; in [8] it was 270000 M⁻¹ s⁻¹.

B5: full-length extracellular domain of RGMC (Gln36-Asp400) from FreeStyle 293 cells (domain or fragment)
chain: QCKILRCNAEYVSSTLSLRGGGSSGALRGGGGGGRGGGVGSGGLCRALRSYALCTRRTARTCRGDLAFHSAVHGIEDLMIQHNCSRQGPTAPPPPRGPALPGAGSGLPAPDPCDYEGRFSRLHGRPPGFLHCASFGDPHVRSFHHHFHTCRVQGAWPLLDNDFLFVQATSSPMALGANATATRKLTIIFKNMQECIDQKVYQAEVDNLPVAFEDGSINGGDRPGGSSLSIQTANPGNHVEIQAAYIGTTIIIRQTAGQLSFSIKVAEDVAMAFSAEQDLQLCVGGCPPSQRLSRSERNRRGAITIDTARRLCKEGLPVEDAYFHSCVFDVLISGDPNFTVAAQAALEDARAFLPDLEKLHLFPSD
In the case of B5, in test [6], the Kd is 2.2 nM, the off-rate (koff) was 0.00041 s⁻¹ and the kon was 190000 M⁻¹ s⁻¹. For the same molecule, in test [7], the Kd was determined as 2.8 nM, the koff was found to be 0.00064 s⁻¹ and the association rate constant (kon) came out at 240000 M⁻¹ s⁻¹. Moreover, in test [8], the Kd stood at 2.3 nM, the dissociation rate constant (koff) is 0.00026 s⁻¹ and the association rate constant (kon) came to 160000 M⁻¹ s⁻¹.

B6: ActR2b extracellular domain (ActR2bECD) (receptor)
chain: SGRGEAETRECIYYNANWELERTNQSGLERCEGEQDKRLHCYASWRNSSGTIELVKKGCWLDDFNCYDRQECVATEENPQVYFCCCEGNFCNERFTHLPEAGGPEVTYEPPPTAPTLLT
As for B6, the stoichiometry N (ActR2b per GDF5 dimer (2:2:2 by chains)) in test [9] came to 2.
